Measured values from the RNAGym collection of RNA variant scans (doi:10.1073/pnas.2313332121).

B1: TPR t1 (parent)
chain: GACCAAUCUGCCCUCAGAGCUCGAGAACAUCUUCGGAUGCAGAGGAGGCAGGCUUCGGUGGCGCGAUAGCGCCAACGUCCUCAACCUCCAAUGCAUCCCACCACAUGAUGAUGCCUGAAGAGCCUUGGUUUUUUG

Variants of: B1
Test: polymerase ribozyme fitness, log enrichment relative to wild type (log ratio); higher = more active; in vitro selection for triplet polymerase activity
How it was run: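 Fitness is a logarithmic measure of how a genotype enriched relative to the wild type, with replicate averages weighted by inverse variance. The logarithm uses base 2, and enrichment came from Illumina sequencing of input and output libraries. Those libraries were PCR-built, transcribed mutants of each subunit of a heterodimeric triplet polymerase ribozyme, passed through one triplicate in vitro selection round that included frozen incubation at −7 °C, gel excision of extended constructs and streptavidin-bead capture. Genotypes were kept only if they had ≥10 input reads and ≥1 read per output.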

Variant	polymerase ribozyme fitness (log ratio)
C11U U125A	-0.822
C13A C40U C62A C123G	-0.545
A37G U109G	-5.43
G10C C20A U54A C64U C88G A118U	-2.75
A16U A37U	-2.13
U7G C31U G60A	-4.97
G10U U14A U132A	-1.64
G69C A91C G113U	-4.43
C13U U112A	1.43
A46U U132A	-1.18
G52C U78C G117U	-2.77
U7G C8A C15U G36A C56G C70G U78C C82G U106A	-4.94
A6C C28G U30A G51U G69A C70A C115A G128C	-6.73
C13A U32A C53G	-6.04
U7A C114A	-1.29
C13A G36C C53G A95C	-4.38
C70G G93U	-3.28
U21A A26U	-4.35
U55C A111U A119C	-5.71
U7A C20G G25C C34G A43C G52A G113C	-7.56
A26U A50C G58A	-4.45

Variant	polymerase ribozyme fitness (log ratio)
C72A A111G A121C	1.27
U21C C34A C49U U78C G120A	-2.92
U30G C34G G35C A41U C53U C76U C124G	-8.38
C13U U14C A50U G120A	-0.904
G69U G110A	0.0569
A5C G69C	-1.74
A2G G71A	-0.784
C62A U112A	-0.111
G71A U81C C88A C123G G135U	-0.881
A27U U54G U116A C124A G127A	-3.59
C62G C79U G110A	-2.71
C15U A18U G44U G69U	-5.2
U14G C15U C49G G58A U78C	-5.83
G71C C82A A100U G120U	-1.87
C20A A41U G71A	-4.76
C8G C62A	-0.27
C11U G61C	-1.64
U59A G60A C80U A95C G120U	-2.35
C8A C98U	-1.12
U7C G135U	-0.566
G10U A41C G48U G113C	-3.37

Variant	polymerase ribozyme fitness (log ratio)
C70G C82U	-3.14
A18C G61C U112G	-6.42
C62G A111C	-1.87
G17A C62U	-3.04
G10C C20A A29C G58U G60A C85U	-6.83
G52A C70U C102U	-2.87
C89G C94A	-2.52
G107C G135U	-5.77
A18U G45A C73U	-2.84
C49A A90U A111C G113A G122C	-3.8
G42C C49A C56U U96A	-3.16
C101A C115G U132C	-3.46
U32C A84U C123G U131C	1.03
G48U C73G G110U G120U	-4.95
C8G U14A G107U	-4.05
C8U A18C G48C A95G	-2.07
C56G C101U U130C	0.475
C28G G47A C56U U116G	-5.77
C20U G47C A75U A91U	-4.77
A2U C4G C22G U32C C70A A111U G128C	-4.89
A16U G61A	-0.972

Variant	polymerase ribozyme fitness (log ratio)
C80U A103G	-5.21
C13G C56G C88A G110C	-5.35
U78C C85G U106A	-2.34
C3U U92A	-2.91
U59C G93U	-1.12
C12U G17C	-3.21
C8G G47C C86G C124A	1.6
A5G C13U A43U G71A C124U	-1.48
C88U C89A	-1.24
U9C G39A G63U	-1.02
U38A G52A U55G G128A	-2.73
C88A G107U	-4.63
G57U G60C A84U C99A C101U G117U	-6.95
U38A G61C	-2.48
C56G C115U	-1.4
C4U C70U G77C	-1.36
C34A A103C	-4.26
G44A G69A C94U	-4.26
G113A U126C	-0.83
C11G C15U G25C G69C A111C A118G	-6.31
G61A C88U G113A G128U	-2.99
